# Source: paper PMC4611135
# Experiments:
# [1] = target: DndE-His (Salmonella enterica serovar Cerro 87); assay: pull-down; co-expression of dndDE with His tag on DndE (pDndDEH) in E. coli BL21 (DE3); nickel purification, 15% SDS-PAGE
# [2] = target: DndCDE complex (Salmonella enterica serovar Cerro 87); assay: SEC; DndCDE complex saturated with IscS, purified on Superdex 200; molar ratio by densitometry of the Coomassie-stained SDS-PAGE bands
stoichiometry N [1] [molar ratio],Substance,stoichiometry N [2] [molar ratio]
1,DndD (natural protein),–
–,Strep-IscS (from UniProt P0A6B7 1-404) (natural protein),1
